From patent US20250327097A1, “ORGANISMS PRODUCING LESS CROTONIC ACID” (Global Bioenergies, priority 2021, published 2025)

B1: I283T-P284D-N287P-S322T-N388M-C430N-L432F-L434W-S436N-A463F-Y469D (protein)
chain: MFLKSLREQINLLKRQGDLRIINRPVDSYLEAAAIIRRSTETKAPVPLMTNIKGYPGCSIVGGLAALSSNPEYPLSRVAMSLGLSTTASAQSIVQYLIDGLKKTPYLPVEIDSNSAPCKQNILRGEDASLAHFPIPQVHQHDGNRYVNTWGVFIVESPDGQWCNWSIQRVQYLNDRQMIALVFPSQHISDIWEEWVKIGKPMPYALVQGCEPIVPYIAGLPLLERNVNEAEYIGALYGKGIEVVKCETHDLRVPASSEVVIEGYFAITREGVEGPFGEFAGYTDNEPSLQPILSITAISWQDDPIWPVVAEGKPVDEYHTCTGIGDAAAIQNVLLTANLPVSFVWVPLYSACHLMIVSINRHWRQTHPDLTSEQLTKKVGDVIHQTRMSIKLPKIVVLDDDVDPADTESLLWALATRIHPERKRYFYESNIFPWLNCYSEEERHNRKGKRVIIDALLPENHGFISSFDDAYPDDIKQRVLMHWETDFSHD
B2: I283F-P284E-N287Q-S322T-N388M-K394R-C430N-L432F-L434W-S436N-dG462 (protein)
chain: MFLKSLREQINLLKRQGDLRIINRPVDSYLEAAAIIRRSTETKAPVPLMTNIKGYPGCSIVGGLAALSSNPEYPLSRVAMSLGLSTTASAQSIVQYLIDGLKKTPYLPVEIDSNSAPCKQNILRGEDASLAHFPIPQVHQHDGNRYVNTWGVFIVESPDGQWCNWSIQRVQYLNDRQMIALVFPSQHISDIWEEWVKIGKPMPYALVQGCEPIVPYIAGLPLLERNVNEAEYIGALYGKGIEVVKCETHDLRVPASSEVVIEGYFAITREGVEGPFGEFAGYFENEQSLQPILSITAISWQDDPIWPVVAEGKPVDEYHTCTGIGDAAAIQNVLLTANLPVSFVWVPLYSACHLMIVSINRHWRQTHPDLTSEQLTKKVGDVIHQTRMSIKLPRIVVLDDDVDPADTESLLWALATRIHPERKRYFYESNIFPWLNCYSEEERHNRKGKRVIIDALLPENHGAISSFDYAYPDDIKQRVLMHWETDFSHD
B3: S185T-N388M-C430P-L432F-L434W-S436N (protein)
chain: MFLKSLREQINLLKRQGDLRIINRPVDSYLEAAAIIRRSTETKAPVPLMTNIKGYPGCSIVGGLAALSSNPEYPLSRVAMSLGLSTTASAQSIVQYLIDGLKKTPYLPVEIDSNSAPCKQNILRGEDASLAHFPIPQVHQHDGNRYVNTWGVFIVESPDGQWCNWSIQRVQYLNDRQMIALVFPTQHISDIWEEWVKIGKPMPYALVQGCEPIVPYIAGLPLLERNVNEAEYIGALYGKGIEVVKCETHDLRVPASSEVVIEGYFAITREGVEGPFGEFAGYIPNENSLQPILSITAISWQDDPIWPVVAEGKPVDEYHTCSGIGDAAAIQNVLLTANLPVSFVWVPLYSACHLMIVSINRHWRQTHPDLTSEQLTKKVGDVIHQTRMSIKLPKIVVLDDDVDPADTESLLWALATRIHPERKRYFYESPIFPWLNCYSEEERHNRKGKRVIIDALLPENHGAISSFDYAYPDDIKQRVLMHWETDFSHD
B4: I283T-P284D-N287P-S322T-N388M-i421aG-C430N-L432F-L434W-S436N-A463G-Y469D (protein)
chain: MFLKSLREQINLLKRQGDLRIINRPVDSYLEAAAIIRRSTETKAPVPLMTNIKGYPGCSIVGGLAALSSNPEYPLSRVAMSLGLSTTASAQSIVQYLIDGLKKTPYLPVEIDSNSAPCKQNILRGEDASLAHFPIPQVHQHDGNRYVNTWGVFIVESPDGQWCNWSIQRVQYLNDRQMIALVFPSQHISDIWEEWVKIGKPMPYALVQGCEPIVPYIAGLPLLERNVNEAEYIGALYGKGIEVVKCETHDLRVPASSEVVIEGYFAITREGVEGPFGEFAGYTDNEPSLQPILSITAISWQDDPIWPVVAEGKPVDEYHTCTGIGDAAAIQNVLLTANLPVSFVWVPLYSACHLMIVSINRHWRQTHPDLTSEQLTKKVGDVIHQTRMSIKLPKIVVLDDDVDPADTESLLWALATRIHPERKRYFYESNIFPWLNCYSEEERHNRKGKRVIIDALLPENHGGISSFDDAYPDDIKQRVLMHWETDFSHD
B5: P284E-N287Q-S322T-N388M-K394R-C430N-L432F-L434W-S436N-dG462-Y469D (protein)
chain: MFLKSLREQINLLKRQGDLRIINRPVDSYLEAAAIIRRSTETKAPVPLMTNIKGYPGCSIVGGLAALSSNPEYPLSRVAMSLGLSTTASAQSIVQYLIDGLKKTPYLPVEIDSNSAPCKQNILRGEDASLAHFPIPQVHQHDGNRYVNTWGVFIVESPDGQWCNWSIQRVQYLNDRQMIALVFPSQHISDIWEEWVKIGKPMPYALVQGCEPIVPYIAGLPLLERNVNEAEYIGALYGKGIEVVKCETHDLRVPASSEVVIEGYFAITREGVEGPFGEFAGYIENEQSLQPILSITAISWQDDPIWPVVAEGKPVDEYHTCTGIGDAAAIQNVLLTANLPVSFVWVPLYSACHLMIVSINRHWRQTHPDLTSEQLTKKVGDVIHQTRMSIKLPRIVVLDDDVDPADTESLLWALATRIHPERKRYFYESNIFPWLNCYSEEERHNRKGKRVIIDALLPENHGAISSFDDAYPDDIKQRVLMHWETDFSHD
B6: I283T-P284D-N287P-S322T-N388M-C430N-L432F-L434W-S436N-G462P-A463G-Y469D (protein)
chain: MFLKSLREQINLLKRQGDLRIINRPVDSYLEAAAIIRRSTETKAPVPLMTNIKGYPGCSIVGGLAALSSNPEYPLSRVAMSLGLSTTASAQSIVQYLIDGLKKTPYLPVEIDSNSAPCKQNILRGEDASLAHFPIPQVHQHDGNRYVNTWGVFIVESPDGQWCNWSIQRVQYLNDRQMIALVFPSQHISDIWEEWVKIGKPMPYALVQGCEPIVPYIAGLPLLERNVNEAEYIGALYGKGIEVVKCETHDLRVPASSEVVIEGYFAITREGVEGPFGEFAGYTDNEPSLQPILSITAISWQDDPIWPVVAEGKPVDEYHTCTGIGDAAAIQNVLLTANLPVSFVWVPLYSACHLMIVSINRHWRQTHPDLTSEQLTKKVGDVIHQTRMSIKLPKIVVLDDDVDPADTESLLWALATRIHPERKRYFYESNIFPWLNCYSEEERHNRKGKRVIIDALLPENHPGISSFDDAYPDDIKQRVLMHWETDFSHD
B7: P284E-N287Q-S322T-N388M-K394R-C430N-L432F-L434W-S436N-dG462-Y469S (protein)
chain: MFLKSLREQINLLKRQGDLRIINRPVDSYLEAAAIIRRSTETKAPVPLMTNIKGYPGCSIVGGLAALSSNPEYPLSRVAMSLGLSTTASAQSIVQYLIDGLKKTPYLPVEIDSNSAPCKQNILRGEDASLAHFPIPQVHQHDGNRYVNTWGVFIVESPDGQWCNWSIQRVQYLNDRQMIALVFPSQHISDIWEEWVKIGKPMPYALVQGCEPIVPYIAGLPLLERNVNEAEYIGALYGKGIEVVKCETHDLRVPASSEVVIEGYFAITREGVEGPFGEFAGYIENEQSLQPILSITAISWQDDPIWPVVAEGKPVDEYHTCTGIGDAAAIQNVLLTANLPVSFVWVPLYSACHLMIVSINRHWRQTHPDLTSEQLTKKVGDVIHQTRMSIKLPRIVVLDDDVDPADTESLLWALATRIHPERKRYFYESNIFPWLNCYSEEERHNRKGKRVIIDALLPENHGAISSFDSAYPDDIKQRVLMHWETDFSHD

Test system: 3-methylcrotonic acid
Assay type: biochemical, Yersinia frederiksenii
Set-up: key: “+” representing a low increase in activity; “++++” representing a high increase in activity

Molecule	Activity relative to WT
B1	++++
B2	++++
B3	+
B4	++++
B5	++++
B6	++++
B7	++++
